The target in assay [1] is cynomolgus monkey CCR8 (comprising threonine at position four) (cynomolgus monkey). The experiment in a line: flow cytometry, primary cynomolgus Tregs (PBMC, CD4+CD25+CD127- gate). (In general: A flow cytometer gives signals particle by particle.)
For assay [2] the target is unchanged. The experiment in a line: KinExA, 293T cells expressing cynomolgus CCR8. (A kinetic exclusion assay measures how much of one partner remains free in solution.)

Several values for one entry are separate records, joined by “and”; a condition that tells them apart may be missing. Equal entries are not always repeated.

Chain of cynomolgus monkey CCR8 (comprising threonine at position four) (cynomolgus monkey) (O97665 other isoform, or with tags, fused parts or gaps): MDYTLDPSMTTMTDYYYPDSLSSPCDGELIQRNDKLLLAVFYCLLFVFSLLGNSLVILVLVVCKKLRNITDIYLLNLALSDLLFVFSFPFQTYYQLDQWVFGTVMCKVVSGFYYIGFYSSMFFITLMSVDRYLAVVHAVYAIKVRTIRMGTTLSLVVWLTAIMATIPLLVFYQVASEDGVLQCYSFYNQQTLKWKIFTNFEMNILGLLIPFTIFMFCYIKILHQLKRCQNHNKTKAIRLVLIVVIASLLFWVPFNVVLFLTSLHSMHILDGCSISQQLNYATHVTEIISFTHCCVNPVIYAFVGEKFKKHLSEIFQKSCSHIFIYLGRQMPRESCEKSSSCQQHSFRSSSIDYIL

B1: Antibody 2 IgG2 (antibody, V domains shown)
VH: QVQLVESGGGVVQPGRSLRLSCAASGFTFSNYGMHWVRQAPGKGLEWVAVISYDGSNKFYADSVKGRFTISRDNSKKTLYLQMSSLRVEDTAVYYCARAGGIGRFDYWGQGTLVTVSS
VL: DFVMTQTPLSLSVTPGQPASISCKYSQSLLHSDGKTYLFWYLQKPGQPPHLLIYEVSNRFSGVPDRFSGSGSGTDFTLKISRVEAEDVGLYYCMQTLKLPLTFGGGTKVEINR
With B1, the CCR8+CD127-CD25+CD4, % positive in assay [1] is 8.5% and 17.9%. Moreover, in assay [2], the equilibrium dissociation constant (Kd) (commonly the concentration at which binding is half-saturated) is over 0.05 µM.

Source of the values: patent US20250171549A1.
